Data taken from publication PMC7782499, “Progerinin, an optimized progerin-lamin A binding inhibitor, ameliorates premature senescence phenotypes of Hutchinson-Gilford progeria syndrome” (Communications Biology, 2021).
Several values for one entry are separate records, joined by “and”; a condition that tells them apart may be missing. Equal entries are not always repeated.

Key:
[1] = Plasma protein binding, rat; assay type: in vitro ADME
Experimental: (§1) At pre-set time-points, blood concentration of JH4 was determined by LC-MS/MS analysis[22],[23]. Other chemicals were also tested using similar protocol. In vitro ADME studies (plasma protein binding, CYP inhibition, microsomal stability, plasma stability, and hERG inhibition) were performed by New Drug Development Center (Daegu, Korea) using standard protocols[24],[25].

[2] = Plasma protein binding, human; assay type: in vitro ADME
Experimental: as §1

HEK293 cells [3] = assay: Nuclear deformation in GFP-positive HEK293 cells transfected with lamin A / progerin vectors; assay type: cell-based; conditions: for % of deformed nuclei in GFP positive cells, Ave: average (Fig S1E); for % of deformed nuclei in GFP positive cells: single replicates (Fig S1E)
Text: (§2) GFP tag conjugated EV (GFP-EV), lamin A (GFP-LA), lamin A-C661A (GFP-LA-C661A), progerin (GFP-PG), and progerin-C611A (GFP-PG-C611A) vectors were used. GFP-PG and GFP-LA expression vectors were kindly provided by Misteli T. (National Cancer Institute [NCI], Frederick, MD, USA). GFP-LA-C661A and GFP-PG-C611A expression vectors were created by a single point mutation in CaaX motif. The CSIM sequence of lamin A, or progerin was mutated to ASIM. jetPEI (Polyplus Transfection, NY, USA) was used for transfection of expression vectors. Vectors were mixed with 1.5 μl of jetPEI in 150 mM NaCl solution. The mixture was added to HEK293 cells. After 4 h of incubation, medium was replaced with a new medium supplemented with 10% FBS.
For nuclear deformation cell counting, immunofluorescence staining was performed with lamin A or progerin antibodies. After staining, abnormal nuclear membrane was counted in randomly selected fields and expressed as percentages or actual numbers of total cells counted. Abnormalities of nuclear membrane were determined based on the following: (1) lamin A/C or progerin lining was extruded or engulfed, (2) having at least one bleb, and (3) irregular contour. Counting of cells with nuclear deformation was performed by three independent observers who were blinded to chemical treatment group. To analyze histone H3K9me3 intensity or expression, images were quantified using “color histogram” function of Image J software (National Institute of Health, NIH). Fluorescence intensities were subtracted by background signals.
(§3) Fig. S1. Generation of point mutation in CaaX motif of lamin A and progerin for blocking farnesylation.
(§4) A. Sequence of expression vector encoding LA-C661A was created by single point mutation in CaaX motif.
WT-LA with CSIM sequence was mutated to ASIM. B. Sequence of expression vector encoding progerin-
C611A with a single point mutation in CaaX motif. Progerin with CSIM sequence was mutated to ASIM. […]
D. Measurement of proteins (GFP-LA, GFP-LA-C661A, GFP- […]
Quantification of western blot by Ima ge J
software (National Institute of Health, NIH). E. Quantification of nuclear deformation in GFP positive
HEK293 cells. At least 100 cells/sample/experiment were counted by two independent researchers. The
statistical significance was analyzed by Student’s t -test. **p < 0.001, *p < 0.05, N.S: not significant. F. […]

HEK293 cells [4] = assay: GFP-tagged protein and H3K9me3 expression in transfected HEK293 cells; assay type: cell-based; conditions: for GFP relative expression (ratio), Ave: average (Fig S1F); for Relative H3K9me3 expression, Ave: average (Fig S1G); for GFP relative expression (ratio): single replicates (Fig S1F); for Relative H3K9me3 expression: single replicates (Fig S1G); for GFP positive cells in total cells, Ave / GFP positive cells in total cells: transfected cells; for GFP positive cells in total cells, Ave / GFP relative expression in Western Blot, Ave: average (Fig S1D); for GFP positive cells in total cells / GFP relative expression in Western Blot: single replicates (Fig S1D);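 for Relative H3K9me3 expression, Ave: Western blot band quantification of H3K9me3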;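 for Relative H3K9me3 expression: Western blot band quantification of H3K9me3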
Text: as §2
Protein was extracted from cells using a radioimmunoprecipitation assay (RIPA) buffer (50 mM Tris-Cl, pH 7.5, 150 mM NaCl, 1% NP-40, 0.1% SDS, and 10% sodium deoxycholate). Samples were separated by sodium dodecyl sulfate-polyacrylamide gel electrophoresis (SDS-PAGE) and transferred to polyvinylidene difluoride (PVDF) membranes. Blotted membranes were blocked with 3% skimmed milk in TBS-T buffer (20 mM Tris pH 7.6, 150 mM NaCl, and 0.05% Tween 20) for 1 h followed by incubation with specific primary antibodies. Horseradish peroxidase (HRP)-conjugated goat anti-mouse, goat anti-rabbit, and mouse anti-goat IgG antibodies (Pierce, Thermo Fisher Scientific, Inc., Rockford, IL, USA) were used as secondary antibodies. Peroxidase activity was detected by chemiluminescence using an ECL kit (Intron, Seoul, Korea) following the manufacturer’s instructions. Bands were quantified using Image J software (National Institute of Health, NIH).
as §3, §4
WT-LA with CSIM sequence was mutated to ASIM. B. Sequence of expression vector encoding progerin-C611A with a single point mutation in CaaX motif. Progerin with CSIM sequence was mutated to ASIM.
C. Transient transfection of HEK293 cells with LA-C661A or PG-C611A seems to be indistinguishable from that of authentic WT-LA, or progerin. D. Measurement of proteins (GFP-LA, GFP-LA-C661A, GFP-PG, and GFP-PG-C611A) expression by counting of GFP-positive cells and western blot analysis. The blue […]
fluorescence images were randomly selected and the number of GFP expressing cells were calculated. The […]
experiment; two-tailed Student’s t-test), N.S: not significant. Quantification of western blot by Ima ge J software (National Institute of Health, NIH). […]
Quantification of GFP -tagged expression vector encoding e mpty (EV), wild-type lamin A (WT-LA), lamin A-C661A (LA-C661A), progerin, or progerin- C611A. Blots of GFP expression were quantified using Image J software. (n = 3 independent experiment; two- tailed Student’s t -test), N.S: not significant. G.
Quantification of H3K9me3 expression. […]

## C[C@@H]1C[C@H]2[C@@H]3CCC4=CC(=O)C=C[C@]4(C)[C@@]3(F)[C@@H](O)C[C@]2(C)[C@@]1(O)C(=O)CO [Dexamethasone]
[1]
  fraction unbound: 0.156
[2]
  Plasma protein binding: 62.1 % Bound
[2]; human, plasma
  fraction unbound: 0.345

B1: WT-LA (protein)
chain: METPSQRRATRSGAQASSTPLSPTRITRLQEKEDLQELNDRLAVYIDRVRSLETENAGLRLRITESEEVVSREVSGIKAAYEAELGDARKTLDSVAKERARLQLELSKVREEFKELKARNTKKEGDLIAAQARLKDLEALLNSKEAALSTALSEKRTLEGELHDLRGQVAKLEAALGEAKKQLQDEMLRRVDAENRLQTMKEELDFQKNIYSEELRETKRRHETRLVEIDNGKQREFESRLADALQELRAQHEDQVEQYKKELEKTYSAKLDNARQSAERNSNLVGAAHEELQQSRIRIDSLSAQLSQLQKQLAAKEAKLRDLEDSLARERDTSRRLLAEKEREMAEMRARMQQQLDEYQELLDIKLALDMEIHAYRKLLEGEEERLRLSPSPTSQRSRGRASSHSSQTQGGGSVTKKRKLESTESRSSFSQHARTSGRVAVEEVDEEGKFVRLRNKSNEDQSMGNWQIKRQNGDDPLLTYRFPPKFTLKAGQVVTIWAAGAGATHSPPTDLVWKAQNTWGCGNSLRTALINSTGEEVAMRKLVRSVTVVEDDEDEDGDDLLHHHHGSHCSSSGDPAEYNLRSRTVLCGTCGQPADKASASGSGAQVGGPISSGSSASSVTVTRSYRSVGGSGGGSFGDNLVTRSY
modifications: left off: GFP, end not stated, state not stated
HEK293 cells [3]
  % of deformed nuclei in GFP positive cells, Ave: 7%
  % of deformed nuclei in GFP positive cells: 6% and 8% and 4% and 9% and 12%

B2: PG-C611A (protein)
chain: METPSQRRATRSGAQASSTPLSPTRITRLQEKEDLQELNDRLAVYIDRVRSLETENAGLRLRITESEEVVSREVSGIKAAYEAELGDARKTLDSVAKERARLQLELSKVREEFKELKARNTKKEGDLIAAQARLKDLEALLNSKEAALSTALSEKRTLEGELHDLRGQVAKLEAALGEAKKQLQDEMLRRVDAENRLQTMKEELDFQKNIYSEELRETKRRHETRLVEIDNGKQREFESRLADALQELRAQHEDQVEQYKKELEKTYSAKLDNARQSAERNSNLVGAAHEELQQSRIRIDSLSAQLSQLQKQLAAKEAKLRDLEDSLARERDTSRRLLAEKEREMAEMRARMQQQLDEYQELLDIKLALDMEIHAYRKLLEGEEERLRLSPSPTSQRSRGRASSHSSQTQGGGSVTKKRKLESTESRSSFSQHARTSGRVAVEEVDEEGKFVRLRNKSNEDQSMGNWQIKRQNGDDPLLTYRFPPKFTLKAGQVVTIWAAGAGATHSPPTDLVWKAQNTWGCGNSLRTALINSTGEEVAMRKLVRSVTVVEDDEDEDGDDLLHHHHGSHCSSSGDPAEYNLRSRTVLCGTCGQPADKASASGSGAQSPQNASIM
modifications: left off: GFP, end not stated, kept
HEK293 cells [3]
  % of deformed nuclei in GFP positive cells, Ave: 97.7143%
  % of deformed nuclei in GFP positive cells: 95% and 100% and 96% and 98%
HEK293 cells [4]
  GFP relative expression (ratio), Ave: 0.82
  Relative H3K9me3 expression, Ave: 2.153
  GFP relative expression (ratio): 0.9957 and 0.6855 and 0.7789
  Relative H3K9me3 expression: 2.22 and 2.38 and 1.86
  GFP positive cells in total cells, Ave: 0.7166
  GFP positive cells in total cells: 0.624 (2×) and 0.546 and 0.585 and 0.819 and 0.897 and 0.78 and 0.858

B3: LA (protein, UniProt P02545 1-661, looked up)
Prelamin-A/C: METPSQRRATRSGAQASSTPLSPTRITRLQEKEDLQELNDRLAVYIDRVRSLETENAGLRLRITESEEVVSREVSGIKAAYEAELGDARKTLDSVAKERARLQLELSKVREEFKELKARNTKKEGDLIAAQARLKDLEALLNSKEAALSTALSEKRTLEGELHDLRGQVAKLEAALGEAKKQLQDEMLRRVDAENRLQTMKEELDFQKNIYSEELRETKRRHETRLVEIDNGKQREFESRLADALQELRAQHEDQVEQYKKELEKTYSAKLDNARQSAERNSNLVGAAHEELQQSRIRIDSLSAQLSQLQKQLAAKEAKLRDLEDSLARERDTSRRLLAEKEREMAEMRARMQQQLDEYQELLDIKLALDMEIHAYRKLLEGEEERLRLSPSPTSQRSRGRASSHSSQTQGGGSVTKKRKLESTESRSSFSQHARTSGRVAVEEVDEEGKFVRLRNKSNEDQSMGNWQIKRQNGDDPLLTYRFPPKFTLKAGQVVTIWAAGAGATHSPPTDLVWKAQNTWGCGNSLRTALINSTGEEVAMRKLVRSVTVVEDDEDEDGDDLLHHHHGSHCSSSGDPAEYNLRSRTVLCGTCGQPADKASASGSGAQVGGPISSGSSASSVTVTRSYRSVGGSGGGSFGDNLVTRSYLLGNSSPRTQSPQNC
HEK293 cells [4]
  GFP relative expression in Western Blot, Ave: 1.171
  GFP relative expression (ratio), Ave: 0.7757
  Relative H3K9me3 expression, Ave: 4.873
  GFP relative expression in Western Blot: 1.2 and 1.286 and 1.029
  GFP relative expression (ratio): 0.8616 and 0.6545 and 0.811
  Relative H3K9me3 expression: 5.1 and 4.62 and 4.9
  GFP positive cells in total cells, Ave: 0.7312
  GFP positive cells in total cells: 0.897 and 0.585 and 0.741 (2×) and 0.546 and 0.819 (2×) and 0.702

B4: LA-C661A (protein, UniProt P02545 1-661, looked up, variant C661A)
Prelamin-A/C: METPSQRRATRSGAQASSTPLSPTRITRLQEKEDLQELNDRLAVYIDRVRSLETENAGLRLRITESEEVVSREVSGIKAAYEAELGDARKTLDSVAKERARLQLELSKVREEFKELKARNTKKEGDLIAAQARLKDLEALLNSKEAALSTALSEKRTLEGELHDLRGQVAKLEAALGEAKKQLQDEMLRRVDAENRLQTMKEELDFQKNIYSEELRETKRRHETRLVEIDNGKQREFESRLADALQELRAQHEDQVEQYKKELEKTYSAKLDNARQSAERNSNLVGAAHEELQQSRIRIDSLSAQLSQLQKQLAAKEAKLRDLEDSLARERDTSRRLLAEKEREMAEMRARMQQQLDEYQELLDIKLALDMEIHAYRKLLEGEEERLRLSPSPTSQRSRGRASSHSSQTQGGGSVTKKRKLESTESRSSFSQHARTSGRVAVEEVDEEGKFVRLRNKSNEDQSMGNWQIKRQNGDDPLLTYRFPPKFTLKAGQVVTIWAAGAGATHSPPTDLVWKAQNTWGCGNSLRTALINSTGEEVAMRKLVRSVTVVEDDEDEDGDDLLHHHHGSHCSSSGDPAEYNLRSRTVLCGTCGQPADKASASGSGAQVGGPISSGSSASSVTVTRSYRSVGGSGGGSFGDNLVTRSYLLGNSSPRTQSPQNA
HEK293 cells [3]
  % of deformed nuclei in GFP positive cells, Ave: 7.286%
  % of deformed nuclei in GFP positive cells: 8% and 6% and 10% and 5% and 9%
HEK293 cells [4]
  GFP relative expression in Western Blot, Ave: 1.219
  GFP relative expression (ratio), Ave: 0.7753
  Relative H3K9me3 expression, Ave: 4.563
  GFP relative expression in Western Blot: 1.3 and 1.171 and 1.186
  GFP relative expression (ratio): 0.9644 and 0.614 and 0.7475
  Relative H3K9me3 expression: 5.03 and 4.5 and 4.16
  GFP positive cells in total cells, Ave: 0.7264
  GFP positive cells in total cells: 0.819 and 0.936 and 0.741 (2×) and 0.546 and 0.585 and 0.78 and 0.663
